Experimental data taken from US20190106460A1 (published 2019).
Read-outs that look alike come from different tables or passages of the source. Starred links: 1 amine or outer side, 2 acyl side, 3 side chain; linkers in the order of their positions; H or OH if unused. Non-standard residues stand in square brackets, D forms with d. *: point of attachment. 2Naphthylsulfonyl = O=S(=O)(c1ccc2ccccc2c1)*; 4‑(Br)‑2‑(Me)PhSO2 = Cc1cc(Br)ccc1S(=O)(=O)*; Phe(3-F) = N[C@@H](Cc1cccc(F)c1)C(=O)O; 1Nal = N[C@@H](Cc1cccc2ccccc12)C(=O)O; Benzoyl(4-Br) = O=C(c1ccc(Br)cc1)*; Suc = O=C(CCC(=O)[*:2])[*:1]; Tos = Cc1ccc(S(=O)(=O)*)cc1; Ethoxycarbonyl = CCOC(=O)*; Propionyl = CCC(=O)*; Bz = O=C(c1ccccc1)*; Ahx = NCCCCCC(=O)O; Moc = COC(=O)*

Experiments:
[1] = target: T1, βTrCP (tag cleaved and complexed with Skp1) (UniProt Q9Y297 175-605; P63208 1-163); assay: FP competition vs fluorescein-IκB peptide
T1 construct: Protein of the FP assay (0.035 µM); also called Beta Transducin repeat-containing protein; βTrCP/Skp1

[2] = target: T1, βTrCP (tag cleaved and complexed with …); assay: FP competition vs fluorescein-IκB peptide; remark: listed apart in the source
Skp2 = Skp2 (UniProt Q13309 1-424, limits assumed); assay: cell-based or functional assay
Skp2, sequence (Q13309 whole entry): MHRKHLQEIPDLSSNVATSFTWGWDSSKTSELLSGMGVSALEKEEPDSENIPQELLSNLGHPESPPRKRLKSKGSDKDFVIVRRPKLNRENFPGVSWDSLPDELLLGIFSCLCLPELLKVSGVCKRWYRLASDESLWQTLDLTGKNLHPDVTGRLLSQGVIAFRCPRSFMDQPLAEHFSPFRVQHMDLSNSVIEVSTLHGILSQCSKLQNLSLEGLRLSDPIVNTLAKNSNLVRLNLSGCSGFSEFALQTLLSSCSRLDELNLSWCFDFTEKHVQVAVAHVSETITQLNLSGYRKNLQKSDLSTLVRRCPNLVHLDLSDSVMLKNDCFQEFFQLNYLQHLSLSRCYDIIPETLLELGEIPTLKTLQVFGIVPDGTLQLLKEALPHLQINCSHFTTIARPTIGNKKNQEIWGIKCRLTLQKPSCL

Fbw7 = Fbw7 (UniProt Q969H0 263-707, limits assumed); assay: cell-based or functional assay
Fbw7, sequence (Q969H0 263-707 limits assumed): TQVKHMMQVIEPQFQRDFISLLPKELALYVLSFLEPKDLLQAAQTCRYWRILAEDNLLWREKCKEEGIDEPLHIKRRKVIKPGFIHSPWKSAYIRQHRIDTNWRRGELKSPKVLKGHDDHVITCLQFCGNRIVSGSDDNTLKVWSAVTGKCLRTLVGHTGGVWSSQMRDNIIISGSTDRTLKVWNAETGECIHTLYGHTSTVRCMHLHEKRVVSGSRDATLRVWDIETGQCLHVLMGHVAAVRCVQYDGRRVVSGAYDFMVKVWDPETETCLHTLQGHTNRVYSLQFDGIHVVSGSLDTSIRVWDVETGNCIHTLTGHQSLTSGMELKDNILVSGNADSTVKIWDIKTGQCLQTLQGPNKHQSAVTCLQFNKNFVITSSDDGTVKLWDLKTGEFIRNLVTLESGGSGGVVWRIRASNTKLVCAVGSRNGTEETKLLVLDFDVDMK

[3] = target: T2, HisβTrCP/Skp1 and HisβTrCP/GSTSkp1 (immobilised on NTA Biacore chip) (UniProt Q9Y297 175-605; P63208 1-163); assay: SPR, Biacore T200, βTrCP/Skp1 immobilised
T2 construct: SPR: KD values from both surfaces (with or without the GST moiety) were averaged to give the apparent KD; also called βTrCP surfaces
T2 sequence (Q9Y297 175-605, chain 1 of 2): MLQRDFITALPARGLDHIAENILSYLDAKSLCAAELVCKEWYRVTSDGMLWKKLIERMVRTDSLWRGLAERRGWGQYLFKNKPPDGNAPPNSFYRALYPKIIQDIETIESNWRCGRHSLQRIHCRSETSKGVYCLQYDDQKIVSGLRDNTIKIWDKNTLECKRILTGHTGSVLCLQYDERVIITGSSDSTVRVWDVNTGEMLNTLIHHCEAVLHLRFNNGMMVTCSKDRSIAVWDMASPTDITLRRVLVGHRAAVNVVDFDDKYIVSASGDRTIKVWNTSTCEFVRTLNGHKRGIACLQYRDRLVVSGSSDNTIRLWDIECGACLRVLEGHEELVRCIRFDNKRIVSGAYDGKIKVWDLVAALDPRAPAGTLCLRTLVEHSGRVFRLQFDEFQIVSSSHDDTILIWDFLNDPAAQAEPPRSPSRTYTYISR
T2 sequence (P63208 whole entry, chain 2 of 2): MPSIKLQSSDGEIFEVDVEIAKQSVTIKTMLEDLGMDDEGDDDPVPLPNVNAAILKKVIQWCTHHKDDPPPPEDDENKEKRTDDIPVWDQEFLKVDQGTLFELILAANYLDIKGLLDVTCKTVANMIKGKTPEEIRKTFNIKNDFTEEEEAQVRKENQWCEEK
Source text: As βTrCP was His tagged, an NTA sensor chip was used. This sensor chip has a dextran surface matrix with immobilized nitrilotriacetic acid (NTA) which provides a means of capturing polyHis-tagged proteins through Nickel chelation. It was hoped that addition of Ni⁺ would orient the protein in a specific (and hopefully active) manner as it is covalently immobilised via amine coupling. Addition of EDC:NHS (N-ethyl-N′-(3-[…])-carbodiimide:N-hydroxysuccinimide) converts carboxyl groups on the dextran sensor chip surface to succinamide esters which readily form covalent bonds with primary amines. Each chip contains four flow cells (each a separate surface) which means that compounds/peptides can be passed over different forms of βTrCP and a reference surface simultaneously. If binding to βTrCP is occurring, responses should be the same (accounting for differences in density of surface etc) on each surface.
Small molecule/peptide samples to be assayed for binding to βTrCP surfaces, were provided as 10 mM stocks in 100% DMSO. All samples were tested in running buffer composed of 10 mM HEPES pH 7.4, 150 mM NaCl, 50 μM EDTA, 0.005% p20, and 1% DMSO. Serial dilutions were made using running buffer. Samples were tested over varying concentrations up to a maximum of 100 μM. Two methods of measuring the SPR response were employed: single cycle kinetics which measures the response across different concentrations of sample within a single cycle (no regeneration of surface) and a method that measures the response at a given concentration in each cycle and includes a regeneration wash after each sample injection. The regeneration solution used was the same as running buffer, but included 500 mM NaCl. Data was fitted using Biacore T200 evaluation software. KD values calculated from binding curves from both surfaces (with or without the GST moiety) were averaged to produce apparent KD's for each sample tested.

[4] = target: T3, βTrCP (tag cleaved and complexed with Skp1) (UniProt Q9Y297 175-605; P63208 1-163); assay: fluorescence polarisation assay; the column head does not say whether IC50 or Ki
T3 construct: Protein of the fluorescence polarisation assay, 0.035 µM; also called Beta Transducin repeat-containing protein; βTrCP/Skp1
Description: Assay components (without compound) were premixed in a microcentrifuge tube and incubated for 1 hour to ensure equilibrium was achieved. Each compound was then added to one tube, mixed by vortexing, and then dispensed into 3 wells of a black 384-well plate and incubated for 30 minutes. Fluorescence polarization was then read (excitation 485 nm, emission 530 nm) using an Analyst-AD from Molecular Devices.
Binding of the compounds to βTrCP was assessed using a fluorescence polarisation (FP) binding assay. The FP assay is an in vitro binding assay using a fluorescein-tagged IkB peptide at 10 nM to mimic substrate binding to βTrCP, and was performed as described above.

## {4‑(PhO)PhSO2}-[dD]EG[Phe(3-F)]WE-NH2 [4-(PhO)PhSO2-dEG-F(3F)-WE-NH2]
[1]
  IC50: 63 nM

B1: 2-NaphthylSO2-dEGF(3F)WE-NH2 (peptide)
peptide: 2Naphthylsulfonyl-[dD]EG[Phe(3-F)]WE-NH2
SMILES: NC(=O)[C@H](CCC(=O)O)NC(=O)[C@H](Cc1c[nH]c2ccccc12)NC(=O)[C@H](Cc1cccc(F)c1)NC(=O)CNC(=O)[C@H](CCC(=O)O)NC(=O)[C@@H](CC(=O)O)NS(=O)(=O)c1ccc2ccccc2c1
notes: also called UBP031
[2]
  IC50: 44 nM
Skp2
  % Inhibition Skp2 @ 10 µM: 0%
  % Inhibition Skp2 @ (100 µM): 17%
Fbw7
  % Inhibition Fbw7 @ 10 µM: 10%
  % Inhibition Fbw7 @ (100 µM): 11%
[1]
  IC50: 44 nM
[3]
  Kd: 262 nM

B2: Ts-dDGF(3F)WE-NH2 (peptide)
peptide: Tos-[dD]DG[Phe(3-F)]WE-NH2
SMILES: Cc1ccc(S(=O)(=O)N[C@H](CC(=O)O)C(=O)N[C@@H](CC(=O)O)C(=O)NCC(=O)N[C@@H](Cc2cccc(F)c2)C(=O)N[C@@H](Cc2c[nH]c3ccccc23)C(=O)N[C@@H](CCC(=O)O)C(N)=O)cc1
notes: also called UBP025
[2]
  IC50: 25 nM
Skp2
  % Inhibition Skp2 @ 10 µM: 0%
  % Inhibition Skp2 @ (100 µM): 22%
Fbw7
  % Inhibition Fbw7 @ 10 µM: 1%
  % Inhibition Fbw7 @ (100 µM): 8%
[1]
  IC50: 25 nM
[3]
  Kd: 292 nM

B3: Ts-dDGF(3F)WD-NH2 (peptide)
peptide: Tos-[dD]DG[Phe(3-F)]WD-NH2
SMILES: Cc1ccc(S(=O)(=O)N[C@H](CC(=O)O)C(=O)N[C@@H](CC(=O)O)C(=O)NCC(=O)N[C@@H](Cc2cccc(F)c2)C(=O)N[C@@H](Cc2c[nH]c3ccccc23)C(=O)N[C@@H](CC(=O)O)C(N)=O)cc1
notes: also called UBP028
[2]
  IC50: 81 nM
Skp2
  % Inhibition Skp2 @ 10 µM: 0%
  % Inhibition Skp2 @ (100 µM): 14%
Fbw7
  % Inhibition Fbw7 @ 10 µM: 4%
  % Inhibition Fbw7 @ (100 µM): 10%
[1]
  IC50: 81 nM
[3]
  Kd: 637 nM

B4: Ts-dEGF(3F)WD-NH2 (peptide)
peptide: Tos-[dD]EG[Phe(3-F)]WD-NH2
SMILES: Cc1ccc(S(=O)(=O)N[C@H](CC(=O)O)C(=O)N[C@@H](CCC(=O)O)C(=O)NCC(=O)N[C@@H](Cc2cccc(F)c2)C(=O)N[C@@H](Cc2c[nH]c3ccccc23)C(=O)N[C@@H](CC(=O)O)C(N)=O)cc1
notes: also called UBP027
[2]
  IC50: 34 nM
Skp2
  % Inhibition Skp2 @ 10 µM: 4%
  % Inhibition Skp2 @ (100 µM): 6%
Fbw7
  % Inhibition Fbw7 @ 10 µM: 3%
  % Inhibition Fbw7 @ (100 µM): 8%
[1]
  IC50: 34 nM
[3]
  Kd: 680 nM

## Propionyl-[dD]EG[Phe(3-F)]WE-NH2 (also called UBP019) [Et(CO)-dEGF(3F)WE-NH2]
[2]
  IC50: 145 nM
Skp2
  % Inhibition Skp2 @ 10 µM: 1%
  % Inhibition Skp2 @ (100 µM): 10%
Fbw7
  % Inhibition Fbw7 @ 10 µM: 0%
  % Inhibition Fbw7 @ (100 µM): 10%
[1]
  IC50: 145 nM
[3]
  Kd: 150 nM

B5: MeO(CO)-dEGF(3F)WE-NH2 (peptide)
peptide: Moc-[dD]EG[Phe(3-F)]WE-NH2
SMILES: COC(=O)N[C@H](CC(=O)O)C(=O)N[C@@H](CCC(=O)O)C(=O)NCC(=O)N[C@@H](Cc1cccc(F)c1)C(=O)N[C@@H](Cc1c[nH]c2ccccc12)C(=O)N[C@@H](CCC(=O)O)C(N)=O
notes: also called UBP020
[2]
  IC50: 76 nM
Skp2
  % Inhibition Skp2 @ 10 µM: 0%
  % Inhibition Skp2 @ (100 µM): 16%
Fbw7
  % Inhibition Fbw7 @ 10 µM: 6%
  % Inhibition Fbw7 @ (100 µM): 8%
[1]
  IC50: 76 nM
[3]
  Kd: 53 nM

## Ac-[dD]EG[Phe(3-F)]WE-NH2 (also called UBP017) [Ac-dEGF(3F)WE-NH2]
[2]
  IC50: 102 nM
Skp2
  % Inhibition Skp2 @ 10 µM: 10%
  % Inhibition Skp2 @ (100 µM): 27%
Fbw7
  % Inhibition Fbw7 @ 10 µM: 3%
  % Inhibition Fbw7 @ (100 µM): 0%
[1]
  IC50: 102 nM
[3]
  Kd: 250 nM

B6: EtO(CO)-dEGF(3F)WE-NH2 (peptide)
peptide: Ethoxycarbonyl-[dD]EG[Phe(3-F)]WE-NH2
SMILES: CCOC(=O)N[C@H](CC(=O)O)C(=O)N[C@@H](CCC(=O)O)C(=O)NCC(=O)N[C@@H](Cc1cccc(F)c1)C(=O)N[C@@H](Cc1c[nH]c2ccccc12)C(=O)N[C@@H](CCC(=O)O)C(N)=O
notes: also called UBP023
[2]
  IC50: 45 nM
Skp2
  % Inhibition Skp2 @ 10 µM: 4%
  % Inhibition Skp2 @ (100 µM): 4%
Fbw7
  % Inhibition Fbw7 @ 10 µM: 0%
  % Inhibition Fbw7 @ (100 µM): 12%
[1]
  IC50: 45 nM
[3]
  Kd: 34 nM

## Bz-[dD]EG[Phe(3-F)]WE-NH2 (also called UBP018) [Bz-dEGF(3F)WE-NH2]
[2]
  IC50: 173 nM
Skp2
  % Inhibition Skp2 @ 10 µM: 0%
  % Inhibition Skp2 @ (100 µM): 0%
Fbw7
  % Inhibition Fbw7 @ 10 µM: 0%
  % Inhibition Fbw7 @ (100 µM): 5%
[1]
  IC50: 173 nM
[3]
  Kd: 424 nM

## {4‑(Br)‑2‑(Me)PhSO2}-[dD]EG[Phe(3-F)]WE[Ahx]K(Benzoyl(4-Br))-NH2 (Round II CPP; also called UBP098) [4-(Br)-2-(Me)PhSO2-dEGF(3F)WE-Ahx-K(CO((4-Br)Ph))-NH2]
[4]
  FP Assay /: 92.4 nM

B7: Ac-dEGF(3F)1NalE-NH2 (peptide)
peptide: Ac-[dD]EG[Phe(3-F)][1Nal]E-NH2
SMILES: CC(=O)N[C@H](CC(=O)O)C(=O)N[C@@H](CCC(=O)O)C(=O)NCC(=O)N[C@@H](Cc1cccc(F)c1)C(=O)N[C@@H](Cc1cccc2ccccc12)C(=O)N[C@@H](CCC(=O)O)C(N)=O
notes: also called UBP016
[2]
  IC50: 112 nM
Skp2
  % Inhibition Skp2 @ 10 µM: 0%
  % Inhibition Skp2 @ (100 µM): 7%
Fbw7
  % Inhibition Fbw7 @ 10 µM: 3%
  % Inhibition Fbw7 @ (100 µM): 8%
[1]
  IC50: 112 nM
[3]
  Kd: 590 nM

B8: Ts-dEGF(3F)WE-NH2 (peptide)
peptide: Tos-[dD]EG[Phe(3-F)]WE-NH2
SMILES: Cc1ccc(S(=O)(=O)N[C@H](CC(=O)O)C(=O)N[C@@H](CCC(=O)O)C(=O)NCC(=O)N[C@@H](Cc2cccc(F)c2)C(=O)N[C@@H](Cc2c[nH]c3ccccc23)C(=O)N[C@@H](CCC(=O)O)C(N)=O)cc1
notes: also called UBP021
[2]
  IC50: 29 nM
Skp2
  % Inhibition Skp2 @ 10 µM: 19%
  % Inhibition Skp2 @ (100 µM): 25%
Fbw7
  % Inhibition Fbw7 @ 10 µM: 9%
  % Inhibition Fbw7 @ (100 µM): 0%
[1]
  IC50: 29 nM
[3]
  Kd: 190 nM

B9: Suc-EGFFE-NH2 (peptide)
peptide: Suc-EGFFE-NH2
SMILES: NC(=O)[C@H](CCC(=O)O)NC(=O)[C@H](Cc1ccccc1)NC(=O)[C@H](Cc1ccccc1)NC(=O)CNC(=O)[C@H](CCC(=O)O)NC(=O)CCC(=O)O
notes: also called UBP002
[2]
  IC50: 3180 nM
Skp2
  % Inhibition Skp2 @ 10 µM: 14%
  % Inhibition Skp2 @ (100 µM): 0%
Fbw7
  % Inhibition Fbw7 @ 10 µM: 0%
  % Inhibition Fbw7 @ (100 µM): 0%
[3]
  Kd: 29500 nM
